Target: recombinant human VSIG4 (rhVSIG4), construct not stated (human) (UniProt Q9Y279)
Assay: ELISA, soluble rhVSIG4 coated, streptavidin-HRP detection, background corrected

biotinylated rhSIGLEC-7 (from UniProt Q9Y286 19-357) (ligand)
absorbance at 452 nm: 2.3 absorbance
